Results reported in the supplement of paper PMC11246515.
± gives the standard deviation of the averaged measurements.

Test: total protein half-life in vivo (active degradation + dilution); higher = more stable protein
[1] = E. coli NCM3722 delta-clpP, growth: N-lim chemostat, doubling time 6 h
[2] = E. coli NCM3722 delta-hslV, growth: N-lim chemostat, doubling time 6 h
[3] = E. coli NCM3722 delta-lon, growth: N-lim chemostat, doubling time 6 h
[4] = E. coli NCM3722 delta-smpB, growth: N-lim chemostat, doubling time 6 h
[5] = wild type E. coli NCM3722, growth: C-lim chemostat, doubling time 3 h
[6] = wild type E. coli NCM3722, growth: C-lim chemostat, doubling time 6 h
[7] = wild type E. coli NCM3722, growth: C-lim chemostat, doubling time 12 h
[8] = wild type E. coli NCM3722, growth: N-lim chemostat, doubling time 6 h
[9] = wild type E. coli NCM3722, growth: N-lim chemostat, doubling time 12 h
[10] = wild type E. coli NCM3722, growth: P-lim chemostat, doubling time 6 h
[11] = wild type E. coli NCM3722, growth: P-lim chemostat, doubling time 12 h
[12] = E. coli NCM3722 delta-clpP delta-lon delta-hslV, growth: N-lim chemostat, doubling time 6 h

Row | Sequence | total protein half-life in vivo [1] [h] | total protein half-life in vivo [2] [h] | total protein half-life in vivo [3] [h] | total protein half-life in vivo [4] [h] | total protein half-life in vivo [5] [h] | total protein half-life in vivo [6] [h] | total protein half-life in vivo [7] [h] | total protein half-life in vivo [8] [h] | total protein half-life in vivo [9] [h] | total protein half-life in vivo [10] [h] | total protein half-life in vivo [11] [h] | total protein half-life in vivo [12] [h]
1 | MARARGRGRRDLKSEINIVPLLDVLLVLLLIFMATAPIITQSVEVDLPDATESQAVSSNDNPPVIVEVSGIGQYTVVVEKDRLERLPPEQVVAEVSSRFKANPKTVFLIGGAKDVPYDEIIKALNLLHSAGVKSVGLMTQPI [P0ABV6] | 5.42 ± 0.13 | 6.44 ± 0.99 | 5.7 ± 0.25 | 5.74 ± 0.59 | 3.106 ± 0.028 | 5.686 ± 0.01 | 11.9 ± 0.7 | 5.73 ± 0.26 | 12.6 ± 0.73 | 5.45 ± 0.66 | 11.81 ± 0.036 | –
2 | MARAVHRSGLVALGIATALMASCAFAAKDVVVAVGSNFTTLDPYDANDTLSQAVAKSFYQGLFGLDKEMKLKNVLAESYTVSDDGITYTVKLREGIKFQDGTDFNAAAVKANLDRASDPANHLKRYNLYKNIAKTEAIDPTTVKITLKQPFSAFINILAHPATAMISPAALEKYGKEIGFYPVGTGPYELDTWNQTDFVKVKKFAGYWQPGLPKLDSITWRPVADNNTRAAMLQTGEAQFAFPIPYEQATLLEKNKNIELMASPSIMQRYISMNVTQKPFDNPKVREALNYAINRPALVKVAFAGYATPATGVVPPSIAYAQSYKPWPYDPVKARELLKEAGYPNGFSTTLWSSHNHSTAQKVLQFTQQQLAQVGIKAQVTAMDAGQRAAEVEGKGQKESGVRMFYTGWSASTGEADWALSPLFASQNWPPTLFNTAFYSNKQVDDFLAQALKTNDPAEKTRLYKAAQDIIWQESPWIPLVVEKLVSAHSKNLTGFWIMPDTGFSFEDADLQ | 5.36 ± 0.42 | 6.42 ± 0.61 | 6.43 ± 0.089 | 5.72 ± 0.071 | 3.21 ± 0.061 | 6.6 ± 0.26 | 13 ± 0.86 | 6.04 ± 0.39 | 13.2 ± 0.28 | 5.85 ± 0.27 | 13.3 ± 0.87 | 5.029 ± 0.012
3 | MARIIVVTSGKGGVGKTTSSAAIATGLAQKGKKTVVIDFDIGLRNLDLIMGCERRVVYDFVNVIQGDATLNQALIKDKRTENLYILPASQTRDKDALTREGVAKVLDDLKAMDFEFIVCDSPAGIETGALMALYFADEAIITTNPEVSSVRDSDRILGILASKSRRAENGEEPIKEHLLLTRYNPGRVSRGDMLSMEDVLEILRIKLVGVIPEDQSVLRASNQGEPVILDINADAGKAYADTVERLLGEERPFRFIEEEKKGFLKRLFGG [P0AEZ3] | 5.22 ± 0.21 | 5.442 ± 0.017 | 5.66 ± 0.15 | 4.87 ± 0.023 | 2.94 ± 0.16 | 5.54 ± 0.16 | 10.1 ± 0.8 | 5.17 ± 0.36 | 9.98 ± 0.53 | 4.93 ± 0.2 | 9.29 ± 0.22 | 5.31 ± 0.21
4 | MARINRISITLCALLFTTLPLTPMAHASKQARESSATTHITKKADKKKSTATTKKTQKTAKKAASKSTTKSKTASSVKKSSITASKNAKTRSKHAVNKTASASFTEKCTKRKGYKSHCVKVKNAASGTLADAHKAKVQKATKVAMNKLMQQIGKPYRWGGSSPRTGFDCSGLVYYAYKDLVKIRIPRTANEMYHLRDAAPIERSELKNGDLVFFRTQGRGTADHVGVYVGNGKFIQSPRTGQEIQITSLSEDYWQRHYVGARRVMTPKTLR | – | 3.67 | 2.15 | – | 2.57 ± 0.19 | 5.435 ± 0.027 | 9.36 ± 4.5 | 2.63 ± 0.55 | 6.47 ± 1.8 | 3.69 ± 0.066 | 6.68 ± 0.86 | > 8
5 | MARKTKPLTDTEIKAAKPKDADYQLYDGDGLTLLIKSSGSKLWQFRYYRPLTKQRTKQSFGAYPAVSLSDARKLRAESKVLLAKDIDPQEHQKEQVRNSQEAKTNTFLLVAERWWNVKKTSVTEDYADDIWRSLERDIFPAIGDISITEIKAHTLVKAVQPVQARGALETVRRLCQRINEVMIYAQNTGLIDAVPSVNIGKAFEKPQKKNMPSIRPDQLPQLMHTMRTASISMSTRCLFMWQLLTITRPAEAAEARWDEIDFNASEWKIPAARMKMNRDHTVPLSDGALAILEMMKPLSGGREFIFPSRIKPNQPMNSQTVNAALKRAGLGGVLVSHGLRSIASTALNEEGFPPDVIEAALAHVDKNEVRRAYNRSDYLEQRRPMMQWWADLVKAADSGSIVLTHLSKIRLVG | – | 0.734 ± 0.064 | 1.362 ± 0.0065 | 0.777 ± 0.0083 | 1.16 ± 0.22 | 1.13 ± 0.079 | 0.594 | 1.7 ± 0.26 | 0.847 | 0.572 | 1.64 ± 0.32 | 5.38 ± 0.81
6 | MARKTKQEAQETRQHILDVALRLFSQQGVSSTSLGEIAKAAGVTRGAIYWHFKDKSDLFSEIWELSESNIGELELEYQAKFPGDPLSVLREILIHVLESTVTEERRRLLMEIIFHKCEFVGEMAVVQQAQRNLCLESYDRIEQTLKHCIEAKMLPADLMTRRAAIIMRGYISGLMENWLFAPQSFDLKKEARDYVAILLEMYLLCPTLRNPATNE [P0ACS9] | – | 6.2 | 5.24 | 5.82 ± 1.9 | – | 5.61 | 10.8 ± 0.63 | 5.74 | 11.6 | 4.88 | 7.48 | 5.34 ± 0.52
7 | MARTKLKFRLHRAVIVLFCLALLVALMQGASWFSQNHQRQRNPQLEELARTLARQVTLNVAPLMRTDSPDEKRIQAILDQLTDESRILDAGVYDEQGDLIARSGESVEVRDRLALDGKKAGGYFNQQIVEPIAGKNGPLGYLRLTLDTHTLATEAQQVDNTTNILRLMLLLSLAIGVVLTRTLLQGKRTRWQQSPFLLTASKPVPEEEESEKKE [P0AGC7] | 4.93 ± 0.059 | 4.9 ± 1 | 4.57 ± 0.81 | 4.34 ± 0.23 | 3.05 ± 0.13 | 6.19 ± 1.3 | – | 3.69 ± 0.5 | 6.81 ± 0.24 | 5.23 ± 0.067 | 9.34 ± 0.24 | 4.45 ± 0.17
